Common to all, as to experiment: SA08b binding assay: competition with biotinylated SA08b for immobilized albumin
Test [1] deals with T1, rat albumin (rat), P02770.
T1 chain: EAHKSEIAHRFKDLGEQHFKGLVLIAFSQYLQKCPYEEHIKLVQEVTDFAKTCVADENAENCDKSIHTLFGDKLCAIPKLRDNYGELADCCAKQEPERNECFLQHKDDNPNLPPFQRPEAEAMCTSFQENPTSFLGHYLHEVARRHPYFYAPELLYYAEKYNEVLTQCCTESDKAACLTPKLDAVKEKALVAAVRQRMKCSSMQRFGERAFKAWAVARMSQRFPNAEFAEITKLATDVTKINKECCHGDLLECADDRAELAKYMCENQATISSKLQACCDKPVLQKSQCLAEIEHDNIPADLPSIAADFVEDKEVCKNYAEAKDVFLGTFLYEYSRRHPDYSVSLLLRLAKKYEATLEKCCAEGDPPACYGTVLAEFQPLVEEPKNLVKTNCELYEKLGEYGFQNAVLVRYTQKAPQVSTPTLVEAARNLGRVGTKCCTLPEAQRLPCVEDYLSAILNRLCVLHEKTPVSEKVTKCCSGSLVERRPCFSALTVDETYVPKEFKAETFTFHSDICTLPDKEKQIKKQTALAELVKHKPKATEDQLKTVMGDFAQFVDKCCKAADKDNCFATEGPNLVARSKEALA

Test [2] deals with mouse albumin (mouse), P07724.
Test [3] has as its target T2, rabbit albumin (rabbit), P49065.
T2 chain: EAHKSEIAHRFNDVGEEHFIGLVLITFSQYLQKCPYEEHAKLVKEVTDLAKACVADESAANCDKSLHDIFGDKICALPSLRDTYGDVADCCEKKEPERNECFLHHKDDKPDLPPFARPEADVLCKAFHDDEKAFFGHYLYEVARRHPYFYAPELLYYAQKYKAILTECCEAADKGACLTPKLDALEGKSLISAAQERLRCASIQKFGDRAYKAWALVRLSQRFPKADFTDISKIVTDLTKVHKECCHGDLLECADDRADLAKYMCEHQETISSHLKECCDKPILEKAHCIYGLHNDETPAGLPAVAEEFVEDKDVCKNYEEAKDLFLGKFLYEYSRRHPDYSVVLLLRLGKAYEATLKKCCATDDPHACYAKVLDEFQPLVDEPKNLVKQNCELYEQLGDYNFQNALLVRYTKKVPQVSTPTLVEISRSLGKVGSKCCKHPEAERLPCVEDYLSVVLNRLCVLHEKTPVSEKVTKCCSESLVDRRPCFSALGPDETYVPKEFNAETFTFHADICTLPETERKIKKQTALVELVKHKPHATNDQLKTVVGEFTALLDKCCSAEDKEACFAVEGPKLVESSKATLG

Results on two molecules are retold here after patent publication US20040253247A1.

mouse albumin (mouse), P07724, sequence (P07724 25-608 limits assumed): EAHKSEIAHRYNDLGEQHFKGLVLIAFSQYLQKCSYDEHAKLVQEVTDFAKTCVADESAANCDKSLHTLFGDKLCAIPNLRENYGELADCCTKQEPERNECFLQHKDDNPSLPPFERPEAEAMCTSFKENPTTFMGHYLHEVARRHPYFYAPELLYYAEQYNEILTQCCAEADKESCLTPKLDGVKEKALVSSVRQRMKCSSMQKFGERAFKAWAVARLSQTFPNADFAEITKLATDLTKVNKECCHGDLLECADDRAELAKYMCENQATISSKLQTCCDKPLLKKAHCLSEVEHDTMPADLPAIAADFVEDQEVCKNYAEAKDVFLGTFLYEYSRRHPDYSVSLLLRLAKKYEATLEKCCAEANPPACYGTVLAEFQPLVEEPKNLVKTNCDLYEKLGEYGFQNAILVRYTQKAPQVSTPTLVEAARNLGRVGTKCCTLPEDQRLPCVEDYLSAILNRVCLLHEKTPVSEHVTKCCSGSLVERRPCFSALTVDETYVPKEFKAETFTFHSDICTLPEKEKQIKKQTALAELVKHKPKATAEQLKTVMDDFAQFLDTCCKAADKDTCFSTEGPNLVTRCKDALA

A word on the IC50: it is the concentration at which inhibition is half-maximal. A high value points to weaker potency in that assay. Turning to RLMEDICLPRWGCLWEDD (modifications not checked) [SA10], the values for the IC50 in test [1], in test [2] and in test [3] were 77 nM, 4 nM and 86 nM, respectively.
On to RLMEDICLARWGCLWEDD (modifications not checked) [SA13], for which the IC50 was 2480 nM in test [1], 188 nM in test [2] and 3200 nM in test [3].
